Experiments:
[1] = target: T1, native Api m 1 (nApi m 1), phospholipase A2 from honeybee venom (Apis mellifera, UniProt P00630 34-167)
[2] = target: T1, native Api m 1 (nApi m 1), …; assay: cell-based or functional assay
[3] = target: recombinant Api m 2 (rApi m 2), venom hyaluronidase (honeybee, UniProt Q08169 34-382); assay: ELISA, immobilized rApi m 2, purified nanobody
Method: (A) Binding to immobilized Api m 1 was detected using anti-V5 antibody. […] (B) Binding to immobilized rApi m 2 was detected using mouse anti-penta-His and AP-conjugated rabbit anti-mouse IgG antibody.
The immunoreactivity of expressed nanobodies was assessed by ELISA. Briefly, micro well plates were coated with 10 μg/ml nApi m 1 or rApi m 2 diluted in PBS at 4° C. o.n. After blocking for 1 h with PBS containing 4% skimmed milk powder, purified nanobodies were incubated in the wells for 2-3 h at rt. shaking. After washing, nanobodies were detected with rabbit anti-V5 antibody (antibodies-online) and AP-conjugated goat anti-rabbit IgG antibody (Sigma) or with mouse anti-penta-His and AP-conjugated rabbit anti-mouse IgG antibody (Sigma).

[4] = target: T1, native Api m 1 (nApi m 1), …; assay: monoclonal phage ELISA (phage-displayed nanobody) on immobilized Api m 1 or AM1-4 IgG/Api m 1 complexes; positive clones
Method: Enrichment of the nanobody phage library was assessed in ELISA by measuring the immunoreactivity of polyclonal phages (A). Binding of phages to immobilized Api m 1 or AM1-4 IgG/Api m 1 complexes was detected using a biotinylated anti-M13 antibody. Data are mean±s.d. of duplicates. Immunoreactivity of monoclonal phages was analyzed in ELISA as above (B). Data are single measurements.
After two rounds of selection the polyclonal phages were assessed for binding to Api m 1 by ELISA. Briefly, micro well plates were coated with 2 μg/ml Api m 1 or 10 μg/ml AM1-4IgG diluted in PBS at 4° C. o.n. After blocking for 30 min with TBS containing 4% skimmed milk powder, the wells were incubated with 2 μg/ml Api m 1 for 1 h at room temperature. After formation of AM1-4 IgG/Api m 1 complexes, polyclonal phages (1×10¹² phages/ml) were incubated in the wells for 2 h at room temperature. After washing, bound phages were detected with biotinylated anti-M13 antibody (Invitrogen) and AP-conjugated ExtrAvidin. For assessment of monoclonal phages, E. coli ER2738 infected with polyclonal phages were plated and individual colonies were picked and expanded for monoclonal phage propagation. Monoclonal phages were assessed by ELISA as described above.

[5] = target: T1, native Api m 1 (nApi m 1), …; assay: BLI, compared with AM1-1 IgG1

T1 sequence (P00630 34-167): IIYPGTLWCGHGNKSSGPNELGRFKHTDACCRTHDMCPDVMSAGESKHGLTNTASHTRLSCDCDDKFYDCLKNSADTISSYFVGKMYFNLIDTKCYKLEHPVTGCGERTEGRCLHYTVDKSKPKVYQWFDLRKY
Chain of recombinant Api m 2 (rApi m 2), venom hyaluronidase (Q08169 34-382): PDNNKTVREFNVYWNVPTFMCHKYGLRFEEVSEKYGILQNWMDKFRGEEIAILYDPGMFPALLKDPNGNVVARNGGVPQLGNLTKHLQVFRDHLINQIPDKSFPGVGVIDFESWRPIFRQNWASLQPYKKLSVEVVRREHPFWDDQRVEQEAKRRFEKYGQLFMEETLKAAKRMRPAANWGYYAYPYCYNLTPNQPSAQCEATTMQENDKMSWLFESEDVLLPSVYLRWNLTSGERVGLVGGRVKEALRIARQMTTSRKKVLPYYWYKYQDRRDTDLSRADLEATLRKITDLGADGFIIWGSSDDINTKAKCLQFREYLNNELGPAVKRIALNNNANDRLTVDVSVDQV

B1: AM1-1 IgG1 (monospecific nanobody-based human IgG1) (Fc fusion)
chain: QVQLVETGGGLVQAGGSLRLSCATSGTIFSRATMAWYRQTPGKQREWVTTITTSGNTNYADSVKGRFTISRDNAESTLYLQMNSLKPEDTAVYYCNAQFLSSRTNYWGKGTQVTVS
- Kd [1]: 1.94 nM
- inhibition of basophil activation (CD63 positive), Patient 1 [2]: 16%
- inhibition of basophil activation (CD63 positive), Patient 2 [2]: 7%

B2: AM1-4 IgG1 (monospecific nanobody-based human IgG1) (Fc fusion)
chain: QVQLVESGGGLVQAGGSLRLSCAASGRTFSRYAMGWFRQAPGKEREFVSAISGSGGFTDYADSVKGRFTISRDNAKSTVYLRMSSLKPEDTAVYYCAAEGSRGSSTRLDARGTYDYWGQGTQVTVS
- Kd [1]: 0.3 nM
- inhibition of basophil activation (CD63 positive), Patient 1 [2]: 44%
- inhibition of basophil activation (CD63 positive), Patient 2 [2]: 23%

B3: mix of the two monospecific nanobody-based human IgG1 (AM1-1 IgG1 and AM1-4 IgG1) (other)
chain 1: B1 chain
chain 2: B2 chain
- inhibition of basophil activation (CD63 positive), Patient 1 [2]: 69%
- inhibition of basophil activation (CD63 positive), Patient 2 [2]: 38%

B4: nanobody AM2-C2 (VHH, not shown: small tags and cut ends)
VHH: EVQLQESGGGLVQPGGSLRLSCAASGTTINIGAARWYRQAPGKQREVVAGISFGGATNYIDSVKGRFTISRGDALNTWYLQMNNLKPEDTAVYYCNARGEWGQGTQVAVS
- binding result [3]: binds

B5: nanobody AM2-O2 (VHH, not shown: small tags and cut ends)
VHH: EVQLQESGGGLVQAGGSLRLSCAASGDTICISAMGWYRQAPGKERELVAVITSADSTNYADSVKGRFTISRAGAKNTLYLQMNSLKPEDTAVYYCNAHTPKYSDFEVTCYEYDYWGQGTLVSVS
- binding result [3]: binds

B6: nanobody AM1-21 (VHH, not shown: small tags and cut ends)
VHH: QVQLVESGGGLVQAGGSLRLSCAASGFTLDYYAIGWFRQAPGKEREGVSCITSYDDSTYYTDSVKGRFTISRDNAKNTVYLQMNSLKPEDTAVYYCAAVGTWYLVNWWAPSEYDYWGQGTQVTVS
notes: also called A7
- binding result [4]: binds

B7: nanobody AM1-22 (VHH, not shown: small tags and cut ends)
VHH: QVQLVESGGGLVQAGGSLRLSCAASGSIFNWAWYRQFPGKQREWVATITSGGNTNLADSVKGRFTISLDNAKNTMYLQMNSLKPEDTAVYYCNSARFRNRDAIWGQGTQVTVS
notes: also called B4
- binding result [4]: binds

B8: AM1-21 IgG1 (nanobody-based human IgG1) (Fc fusion)
chain: B6 VHH
- Kd [1]: 0.0153 nM
- fold higher affinity than AM1-1 IgG1 [5]: ~100 fold

B9: AM1-22 IgG1 (nanobody-based human IgG1) (Fc fusion)
chain: B7 VHH
- Kd [1]: < 0.001 nM
- fold higher affinity than AM1-1 IgG1 [5]: ~100 fold

Source: patent US20250206812A1 (AARHUS UNIVERSITET, published 2025)
